Test results reported in patent publication US20220323583A1, “Pharmaceutical Formulations of Bi-Specific Diabodies and Use of the Same” (MacroGenics, Inc., priority 2019, published 2022).

How the values were obtained:
[1] = molecular target: T1, soluble recombinant human IL-3 receptor alpha (rhIL3Rα) (Homo sapiens, UniProt P26951); test: ELISA (rhIL3Rα) DART-A quantitation assay (concentration, protein recovery); conditions: for Actual Concentration: target 20 ng/mL
T1 construct: soluble recombinant human IL-3 receptor alpha (rhIL3Rα)
T1 sequence (P26951 19-305 limits assumed): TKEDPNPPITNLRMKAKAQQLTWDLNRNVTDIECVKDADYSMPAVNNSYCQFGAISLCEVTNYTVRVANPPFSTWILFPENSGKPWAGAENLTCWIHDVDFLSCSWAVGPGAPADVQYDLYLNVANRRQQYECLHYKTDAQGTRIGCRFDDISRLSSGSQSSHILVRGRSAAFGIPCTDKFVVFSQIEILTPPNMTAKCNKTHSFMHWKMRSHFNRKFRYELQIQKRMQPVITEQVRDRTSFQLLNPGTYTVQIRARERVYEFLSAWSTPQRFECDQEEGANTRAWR
Procedure: In brief, the assay plate was coated with soluble recombinant human IL-3 receptor alpha (rhIL3Rα) overnight. […] After addition of MSD Read Buffer, the plate was inserted into the Sector Imager 2400 Plate Reader. When a voltage was applied to the plate electrodes, the bound Sulfo-TAG label produces an ECL signal, which was captured by the plate reader. A quantitative measure of the ECL signal emitted by each well was recorded, and the ECL counts emitted by the standard calibrators were used to generate a standard curve using a 4-parameter logistic (4PL) fit.

[2] = system: Kasumi-3; test: Redirected killing of target cell line; assay type: cell-based, human
[3] = SE-HPLC (protein aggregation: % main peak, % HMW, % LMW); assay type: physicochemical; conditions: for FLR SE-HPLC % HMW / FLR SE-HPLC % LMW / FLR SE-HPLC % Main Peak: 0.1 mg/mL solution, Stabilizer 2
Procedure: FLR SE-HPLC analysis was performed to measure protein purity, monomer purity and protein stability. The FLR SE-HPLC configuration included a fluorescence (FLR) detector (λX=280 nm, λE=340 nm), a mobile phase composition of 350 mM Mobile Phase (175 mMNaH2PO4, 175 mMNa2SO, pH 6.3) and a TosoBio TSK G3000SWXL size exclusion column. Samples were diluted to 0.1 mg/mL and stored at 5±3° C. for 24 to 96 hours prior to analysis. Eight μg of protein (or 100 μL is sample concentration was below 0.1 mg/mL) was injected for each 30-minute run. HMW and LMW species and monomer peaks were monitored.

[4] = system: pDCs in human PBMCs; test: pDC depletion in PBMCs; assay type: cell-based
From the text: (§1) Upregulation of granzyme B and perforin levels in both CD8 and CD4 T cells was observed.

[5] = system: pDCs in cynomolgus monkey PBMCs; test: pDC depletion in PBMCs; assay type: cell-based
From the text: as §1

[6] = Differential scanning calorimetry (DSC), thermal stability; assay type: physicochemical; conditions: DP buffer with or without PS80 (150 mM NaCl, 10 mM sodium phosphate, pH 6.0)
Procedure: Differential Scanning calorimetry measures the energetics of protein unfolding during a temperature ramp. Peaks represent apparent melting temperatures and the area under the peaks represent the enthalpy of the thermal transition. Data were collected for duplicate samples over 20° C. to 90° C. range using temperature ramp rate of 60° C./hour.

[7] = system: HT29; test: Redirected killing of target cell line; assay type: cell-based; conditions: HT29 (CD123 negative)
[8] = Visual appearance; assay type: physicochemical; conditions: for Appearance / Appearance, Particulates: 1250 ng/mL dosing solution
[9] = system: CD123+ cells; test: DART-A infusion in cynomolgus monkeys; assay type: in vivo
From the text: as §1
A decrease in circulating T cells also occurred, but recovered to baseline before the subsequent infusion in monkeys on the 4-day dose schedule, consistent with DART-A-mediated mobilization.

[10] = Capillary isoelectric focusing (cIEF), charge variants; assay type: physicochemical; conditions: for cIEF % AV (acidic variants) / cIEF % BV (basic variants) / cIEF % Main Peak: 0.1 mg/mL solution, Stabilizer 2
Procedure: cIEF analysis was performed to characterize drug product charge variants. The configuration included a iCE System with Alcott 720NV Autosampler. Samples were prepared to a final concentration of 0.1 mg/mL and centrifuged at 5±3° C. for 40 minutes prior to analysis.

[11] = 0.1 mg/mL in Stabilizer 2 dosing solution, 72-hour RT storage and administration
[12] = Post Infusion (Infusion Time = 96 Hrs)
[13] = Post Storage (Time = 72 Hrs), room temperature
[14] = 10 ng/mL dosing solution, Stabilizer 2, Post Infusion (Infusion Time = 48 Hrs)
[15] = 10 ng/mL dosing solution, Stabilizer 2, Post Storage (T = 72 Hrs), room temperature
[16] = 10 ng/mL dosing solution, Stabilizer 2, T = 0
[17] = 20 ng/mL dosing solution, Stabilizer 2, Post Infusion (Infusion Time = 96 Hrs)
[18] = 20 ng/mL dosing solution, Stabilizer 2, Post Storage (T =72 Hrs), room temperature
[19] = 20 ng/mL dosing solution, Stabilizer 2, T = 0
[20] = Stabilizer 2, Post Infusion (Infusion Time = 48 Hrs)
[21] = Stabilizer 2, Post Storage (T = 72 Hrs), room temperature

B1: DART-A: sequence-optimized CD123×CD3 bispecific diabody; chains SEQ ID NO:42 and SEQ ID NO:44 covalently bonded by a disulfide bond (protein)
chain 1: QAVVTQEPSLTVSPGGTVTLTCRSSTGAVTTSNYANWVQQKPGQAPRGLIGGTNKRAPWTPARFSGSLLGGKAALTITGAQAEDEADYYCALWYSNLWVFGGGTKLTVLGGGGSGGGGEVQLVQSGAELKKPGASVKVSCKASGYTFTDYYMKWVRQAPGQGLEWIGDIIPSNGATFYNQKFKGRVTITVDKSTSTAYMELSSLRSEDTAVYYCARSHLLRASWFAYWGQGTLVTVSSGGCGGGEVAALEKEVAALEKEVAALEKEVAALEK
chain 2: DFVMTQSPDSLAVSLGERVTMSCKSSQSLLNSGNQKNYLTWYQQKPGQPPKLLIYWASTRESGVPDRFSGSGSGTDFTLTISSLQAEDVAVYYCQNDYSYPYTFGQGTKLEIKGGGSGGGGEVQLVESGGGLVQPGGSLRLSCAASGFTFSTYAMNWVRQAPGKGLEWVGRIRSKYNNYATYYADSVKDRFTISRDDSKNSLYLQMNSLKTEDTAVYYCVRHGNFGNSYVSWFAYWGQGTLVTVSSGGCGGGKVAALKEKVAALKEKVAALKEKVAALKE
modifications: interchain disulfide bond; First Polypeptide Chain of DART-A; Second Polypeptide Chain of DART-A
[1]; Final PS80 0.1 mg/mL, Post 24 Hr Storage and 96 Hr Admin
  Actual Concentration: 19.3 ng/mL
[1]; Final PS80 0.1 mg/mL, T0
  Actual Concentration: 19.9 ng/mL
[1]; Final PS80 0.12 mg/mL, Post 24 Hr Storage and 96 Hr Admin
  Actual Concentration: 20.6 ng/mL
[1]; Final PS80 0.12 mg/mL, T0
  Actual Concentration: 21.6 ng/mL
[1]; Study 1, Stabilizer 1, dual-pump infusion RT, High (5000 ng/mL), Expected or Control (T0)
  DART-A Concentration derived from quantitation assay: 313.7 ng/mL
[1]; Study 1, Stabilizer 1, dual-pump infusion RT, High (5000 ng/mL), T = 24 hours
  DART-A Concentration derived from quantitation assay: 235.2 ng/mL
[1]; Study 1, Stabilizer 1, dual-pump infusion RT, High (5000 ng/mL), T = 48 hours
  DART-A Concentration derived from quantitation assay: 294.3 ng/mL
[1]; Study 1, Stabilizer 1, dual-pump infusion RT, High (5000 ng/mL), T = 72 hours
  DART-A Concentration derived from quantitation assay: 254.4 ng/mL
[1]; Study 1, Stabilizer 1, dual-pump infusion RT, Low (100 ng/mL), Expected or Control (T0)
  DART-A Concentration derived from quantitation assay: 10.6 ng/mL
[1]; Study 1, Stabilizer 1, dual-pump infusion RT, Low (100 ng/mL), T = 24 hours
  DART-A Concentration derived from quantitation assay: 6.7 ng/mL
[1]; Study 1, Stabilizer 1, dual-pump infusion RT, Low (100 ng/mL), T = 48 hours
  DART-A Concentration derived from quantitation assay: 12.9 ng/mL
[1]; Study 1, Stabilizer 1, dual-pump infusion RT, Low (100 ng/mL), T = 72 hours
  DART-A Concentration derived from quantitation assay: 11.0 ng/mL
[1]; Study 1, high concentration (target 5000 ng/mL)
  concentration as prepared, DART-A quantitation assay: 5067.5 ng/mL
[1]; Study 1, low concentration (target 100 ng/mL)
  concentration as prepared, DART-A quantitation assay: 116.7 ng/mL
[1]; Study 2, Stabilizer 1, cassette 25° C., 100 rpm, High (5000 ng/mL), T = 0
  DART-A Concentration derived from quantitation assay: 5398.7 ng/mL
[1]; Study 2, Stabilizer 1, cassette 25° C., 100 rpm, High (5000 ng/mL), T = 24 hours
  DART-A Concentration derived from quantitation assay: 5241.2 ng/mL
[1]; Study 2, Stabilizer 1, cassette 25° C., 100 rpm, High (5000 ng/mL), T = 48 hours
  DART-A Concentration derived from quantitation assay: 4967.5 ng/mL
[1]; Study 2, Stabilizer 1, cassette 25° C., 100 rpm, High (5000 ng/mL), T = 72 hours
  DART-A Concentration derived from quantitation assay: 4916.7 ng/mL
[1]; Study 2, Stabilizer 1, cassette 25° C., 100 rpm, Low (100 ng/mL), T = 0
  DART-A Concentration derived from quantitation assay: 110.1 ng/mL
[1]; Study 2, Stabilizer 1, cassette 25° C., 100 rpm, Low (100 ng/mL), T = 24 hours
  DART-A Concentration derived from quantitation assay: 115.5 ng/mL
[1]; Study 2, Stabilizer 1, cassette 25° C., 100 rpm, Low (100 ng/mL), T = 48 hours
  DART-A Concentration derived from quantitation assay: 103.8 ng/mL
[1]; Study 2, Stabilizer 1, cassette 25° C., 100 rpm, Low (100 ng/mL), T = 72 hours
  DART-A Concentration derived from quantitation assay: 106.2 ng/mL
[1]; Study 3, Stabilizer 1, cassette 37° C., 100 rpm, Low (100 ng/mL), T = 0
  DART-A Concentration derived from quantitation assay: 111.4 ng/mL
[1]; Study 3, Stabilizer 1, cassette 37° C., 100 rpm, Low (100 ng/mL), T = 72 hours
  DART-A Concentration derived from quantitation assay: 99.4 ng/mL
[1]; Study 3, Stabilizer 1, cassette 37° C., 100 rpm, second group, target concentration not given, T = 0
  DART-A Concentration derived from quantitation assay: 5682.9 ng/mL
[1]; Study 3, Stabilizer 1, cassette 37° C., 100 rpm, second group, target concentration not given, T = 72 hours
  DART-A Concentration derived from quantitation assay: 4661.6 ng/mL
[2]
  Max % Killing: 94%
[3]; [11]
  SE-HPLC species: no changes in the LMW and LMW
[3]; [12]
  FLR SE-HPLC % HMW: 0.9%
  FLR SE-HPLC % LMW: 0.9%
  FLR SE-HPLC % Main Peak: 98.2%
[3]; [13]
  FLR SE-HPLC % HMW: 0.8%
  FLR SE-HPLC % LMW: 0.9%
  FLR SE-HPLC % Main Peak: 98.4%
[3]; T = 0 Hrs
  FLR SE-HPLC % HMW: 0.8%
  FLR SE-HPLC % LMW: 0.9%
  FLR SE-HPLC % Main Peak: 98.4%
[4]
  depletion of pDCs: capable of mediating the depletion of pDCs cells
[5]
  depletion of pDCs: capable of mediating the depletion of pDCs cells
[6]
  melting temperature (Tm), DSC: 64 °C
[7]
  Max % Killing: No activity
[7]; E:T = 10:1
  EC50, redirected killing: No activity
[8]; [14]
  Visual Appearance: C, L
  Visual Appearance, Particulates: FNP, FPP
[8]; [15]
  Visual Appearance: C, L
  Visual Appearance, Particulates: FNP, FPP
[8]; [16]
  Visual Appearance: C, L
  Visual Appearance, Particulates: FNP, FPP
[8]; [17]
  Visual Appearance: C, L
  Visual Appearance, Particulates: FNP, FPP
[8]; [18]
  Visual Appearance: C, L
  Visual Appearance, Particulates: FNP, FPP
[8]; [19]
  Visual Appearance: C, L
  Visual Appearance, Particulates: FNP, FPP
[8]; [20]
  Appearance: C, L
  Appearance, Particulates: FNP, FPP
[8]; [21]
  Appearance: C, L
  Appearance, Particulates: FNP, FPP
[8]; Stabilizer 2, T = 0
  Appearance: C, L
  Appearance, Particulates: FNP, FPP
[8]; 0.1 mg/mL in Stabilizer 2 dosing solution, storage and administration
  Visual Appearance: No change in visual appearance
[8]; Stabilizer 2 in saline bag, T=0, after 72 h storage and post infusion (48 or 96 hours)
  visual appearance of dosing solutions: clear, colorless with no visible particulates
[9]; DART-A-treated animals
  levels of cytokines interferon-gamma, TNF-alpha, IL-6, IL-5, IL-4 and IL-2: No elevation
[9]; as little as 10 ng/kg DART-A
  pDC depletion after infusion: depleted as early as 4 days post infusion
[9]; infused 4 or 7 days a week, weekly escalating doses
  circulating CD123+ cells: depletion of circulating CD123+ cells 72 h after treatment initiation
[9]; infused 4 or 7 days a week, weekly escalating doses, 4 weeks
  Toxicity: limited to a minimal transient release of cytokines
[10]; [11]
  charge heterogeneity by cIEF: minor changes within the variability of the analytical method
[10]; [12]
  cIEF % AV (acidic variants): 31.4%
  cIEF % BV (basic variants): 3.4%
  cIEF % Main Peak: 65.2%
[10]; [13]
  cIEF % AV (acidic variants): 29.1%
  cIEF % BV (basic variants): 3.9%
  cIEF % Main Peak: 67.0%
[10]; T = 0 Hrs
  cIEF % AV (acidic variants): 28.3%
  cIEF % BV (basic variants): 4.4%
  cIEF % Main Peak: 67.3%
